Experimental data taken from article PMC5117717.

What was measured:
[1] = target: Alexa Fluor 488-labelled BRC4 peptide (human); experiment: fluorescence polarisation; direct binding; 10 nM Alexa Fluor 488-labelled BRC4 peptide constant, protein titrated; 25 °C, 100 mM Tris (pH 7.5), 200 mM KCl, 1.25% glycerol; single-site fit
[2] = target: unlabelled BRC4 repeat (E. coli-produced); experiment: DSF (thermal shift); settings: read off a plot
ATP-Mg2+ = experiment: DSF (thermal shift); settings: read off a plot
[3] = target: RadA oligomerisation peptide; experiment: DSF (thermal shift); settings: read off a plot
[4] = target: HumRadA1 (first humanised RadA protein) (Pyrococcus furiosus) (UniProt O74036); experiment: ITC; 25 °C; peptide titrated into protein; single-site model; the buffer for HumRadA1 is not listed
[5] = target: HumRadA33 (Pyrococcus furiosus) (UniProt O74036); experiment: ITC; 25 °C; peptide titrated into protein; 50 mM Tris–HCl (pH 8.5), 250 mM NaCl, 5 mM MgCl2; single-site model
[6] = target: HumRadA2 (Pyrococcus furiosus) (UniProt O74036); experiment: ITC; 25 °C; peptide titrated into protein; 50 mM Tris–HCl (pH 7.5), 150 mM NaCl, 5 mM MgCl2; single-site model
[7] = target: ChimRAD51 (archeal human chimeric RadA/RAD51/RadA protein) (Pyrococcus furiosus | human) (UniProt O74036); experiment: ITC; 25 °C; ChimRAD51 dialysed against 20 mM K/phosphate (pH 8.0) and 192 mM KCl

Row | other: ΔT (DSF thermal shift on ligand addition) [2] | Kd [4] | Kd [5] | Substance | also measured
1 | – | 24000 nM | 800 nM | RAD51 oligomerisation peptide | –
2 | – | 1800 nM | 14000 nM | RadA oligomerisation peptide | Kd [6]: 3400 nM

Second part, the substance before the results:

Row | Substance | other: ΔT (DSF thermal shift on ligand addition) [2] | Kd [4] | Kd [5] | also measured
3 | ChimRAD51 (archeal human chimeric RadA/RAD51/RadA protein) (from UniProt O74036 108-165; Q06609 156-261; O74036 278-349) | – | – | – | Kd [1]: 4 nM
4 | PfRadA monomeric C-terminal ATPase domain (from residue 108, L2 loop deleted) I169M; Y201A; V202Y; E219S; D220A; K221M | 0.3 °C | – | – | –
5 | PfRadA monomeric C-terminal ATPase domain (from residue 108, L2 loop deleted) I169M; Y201A; V202Y; L213Q; V215L; Q216Y; E219S; D220A; K221M; D267M; L274E; Y275F | 0.15 °C | – | – | other: ΔT (DSF thermal shift on ligand addition) (ATP-Mg2+): 6.1 °C; other: ΔT (DSF thermal shift on ligand addition) [3]: 2.7 °C
6 | unlabelled BRC4 repeat (E. coli-produced) (peptide) | – | – | 33 nM | stoichiometry N [7]: 1
